Substitutions are numbered along the chain they refer to.
B1: UGT76G1var27: UGT76G1 variant, mutations A239I_L379A_V394I (protein, UniProt Q6VAB4 1-458, looked up, variant A239I L379A V394I)
UDP-glycosyltransferase 76G1: MENKTETTVRRRRRIILFPVPFQGHINPILQLANVLYSKGFSITIFHTNFNKPKTSNYPHFTFRFILDNDPQDERISNLPTHGPLAGMRIPIINEHGADELRRELELLMLASEEDEEVSCLITDALWYFAQSVADSLNLRRLVLMTSSLFNFHAHVSLPQFDELGYLDPDDKTRLEEQASGFPMLKVKDIKSAYSNWQILKEILGKMIKQTKASSGVIWNSFKELEESELETVIREIPIPSFLIPLPKHLTASSSSLLDHDRTVFQWLDQQPPSSVLYVSFGSTSEVDEKDFLEIARGLVDSKQSFLWVVRPGFVKGSTWVEPLPDGFLGERGRIVKWVPQQEVLAHGAIGAFWTHSGWNSTLESVCEGVPMIFSDFGADQPLNARYMSDVLKIGVYLENGWERGEIANAIRRVMVDEEGEYIRQNARVLKQKADVSLMKGGSSYESLESLVSYISSL
B2: UGT76G1var43: UGT76G1 variant, mutations S241I_P272A_V279I (protein, UniProt Q6VAB4 1-458, looked up, variant S241I P272A V279I)
UDP-glycosyltransferase 76G1: B1 UDP-glycosyltransferase 76G1 with I239A, S241I, P272A, V279I, A379L, I394V
B3: UGT76G1var2: UGT76G1 variant, mutations S274G_T284I_L379G (protein, UniProt Q6VAB4 1-458, looked up, variant S274G T284I L379G)
UDP-glycosyltransferase 76G1: B1 UDP-glycosyltransferase 76G1 with I239A, S274G, T284I, A379G, I394V
B4: UGT76G1var38: UGT76G1 variant, mutations F41L_I295M_F377C (protein, UniProt Q6VAB4 1-458, looked up, variant F41L I295M F377C)
UDP-glycosyltransferase 76G1: B1 UDP-glycosyltransferase 76G1 with F41L, I239A, I295M, F377C, A379L, I394V
B5: UGT76G1var31: UGT76G1 variant, mutations E224D_L243P_V300A (protein, UniProt Q6VAB4 1-458, looked up, variant E224D L243P V300A)
UDP-glycosyltransferase 76G1: B1 UDP-glycosyltransferase 76G1 with E224D, I239A, L243P, V300A, A379L, I394V
B6: UGT76G1var46: UGT76G1 variant, mutations F22L_Q266E_I295M (protein, UniProt Q6VAB4 1-458, looked up, variant F22L Q266E I295M)
UDP-glycosyltransferase 76G1: B1 UDP-glycosyltransferase 76G1 with F22L, I239A, Q266E, I295M, A379L, I394V
B7: UGT76G1var30: UGT76G1 variant, mutations I43V_E224A_S241I (protein, UniProt Q6VAB4 1-458, looked up, variant I43V E224A S241I)
UDP-glycosyltransferase 76G1: B1 UDP-glycosyltransferase 76G1 with I43V, E224A, I239A, S241I, A379L, I394V
B8: UGT76G1var28: UGT76G1 variant, mutations L243A_S274G_P382M (protein, UniProt Q6VAB4 1-458, looked up, variant L243A S274G P382M)
UDP-glycosyltransferase 76G1: B1 UDP-glycosyltransferase 76G1 with I239A, L243A, S274G, A379L, P382M, I394V
B9: UGT76G1var47: UGT76G1 variant, mutations E229A_T284I_S389E (protein, UniProt Q6VAB4 1-458, looked up, variant E229A T284I S389E)
UDP-glycosyltransferase 76G1: B1 UDP-glycosyltransferase 76G1 with E229A, I239A, T284I, A379L, S389E, I394V
B10: UGT76G1var36: UGT76G1 variant, mutations F265L_L379A_V396F (protein, UniProt Q6VAB4 1-458, looked up, variant F265L L379A V396F)
UDP-glycosyltransferase 76G1: B1 UDP-glycosyltransferase 76G1 with I239A, F265L, I394V, V396F
B11: UGT76G1var29: UGT76G1 variant, mutations F22Y_V279I_N409R (protein, UniProt Q6VAB4 1-458, looked up, variant F22Y V279I N409R)
UDP-glycosyltransferase 76G1: B1 UDP-glycosyltransferase 76G1 with F22Y, I239A, V279I, A379L, I394V, N409R
B12: UGT76G1var34: UGT76G1 variant, mutations I43V_T284I_I295T (protein, UniProt Q6VAB4 1-458, looked up, variant I43V T284I I295T)
UDP-glycosyltransferase 76G1: B1 UDP-glycosyltransferase 76G1 with I43V, I239A, T284I, I295T, A379L, I394V
B13: UGT76G1var45: UGT76G1 variant, mutations V279I_D301N_S389E (protein, UniProt Q6VAB4 1-458, looked up, variant V279I D301N S389E)
UDP-glycosyltransferase 76G1: B1 UDP-glycosyltransferase 76G1 with I239A, V279I, D301N, A379L, S389E, I394V
B14: UGT76G1var1: UGT76G1 variant, mutations E224A_F314S_R334K (protein, UniProt Q6VAB4 1-458, looked up, variant E224A F314S R334K)
UDP-glycosyltransferase 76G1: B1 UDP-glycosyltransferase 76G1 with E224A, I239A, F314S, R334K, A379L, I394V
B15: UGT76G1var40: UGT76G1 variant, mutations T263S_Q266E_S375R (protein, UniProt Q6VAB4 1-458, looked up, variant T263S Q266E S375R)
UDP-glycosyltransferase 76G1: B1 UDP-glycosyltransferase 76G1 with I239A, T263S, Q266E, S375R, A379L, I394V
B16: UGT76G1var32: UGT76G1 variant, mutations A239V_L243A_S375M (protein, UniProt Q6VAB4 1-458, looked up, variant A239V L243A S375M)
UDP-glycosyltransferase 76G1: B1 UDP-glycosyltransferase 76G1 with I239V, L243A, S375M, A379L, I394V
B17: UGT76G1var33: UGT76G1 variant, mutations A33G_R334H_Y397Q (protein, UniProt Q6VAB4 1-458, looked up, variant A33G R334H Y397Q)
UDP-glycosyltransferase 76G1: B1 UDP-glycosyltransferase 76G1 with A33G, I239A, R334H, A379L, I394V, Y397Q
B18: UGT76G1var39: UGT76G1 variant, mutations F22Y_F41L_V366I (protein, UniProt Q6VAB4 1-458, looked up, variant F22Y F41L V366I)
UDP-glycosyltransferase 76G1: B1 UDP-glycosyltransferase 76G1 with F22Y, F41L, I239A, V366I, A379L, I394V
B19: UGT76G1var44: UGT76G1 variant, mutations I335V_S375R_I407V (protein, UniProt Q6VAB4 1-458, looked up, variant I335V S375R I407V)
UDP-glycosyltransferase 76G1: B1 UDP-glycosyltransferase 76G1 with I239A, I335V, S375R, A379L, I394V, I407V
B20: UGT76G1var41: UGT76G1 variant, mutations L246F_A385T_K393G (protein, UniProt Q6VAB4 1-458, looked up, variant L246F A385T K393G)
UDP-glycosyltransferase 76G1: B1 UDP-glycosyltransferase 76G1 with I239A, L246F, A379L, A385T, K393G, I394V
B21: UGT76G1var35: UGT76G1 variant, mutations T284L_F314S_S357N (protein, UniProt Q6VAB4 1-458, looked up, variant T284L F314S S357N)
UDP-glycosyltransferase 76G1: B1 UDP-glycosyltransferase 76G1 with I239A, T284L, F314S, S357N, A379L, I394V
B22: UGT76G1var37: UGT76G1 variant, mutations E229A_L379G_I407V (protein, UniProt Q6VAB4 1-458, looked up, variant E229A L379G I407V)
UDP-glycosyltransferase 76G1: B1 UDP-glycosyltransferase 76G1 with E229A, I239A, A379G, I394V, I407V
B23: UGT76G1var42: UGT76G1 variant, mutations T263S_Q266S_R334H (protein, UniProt Q6VAB4 1-458, looked up, variant T263S Q266S R334H)
UDP-glycosyltransferase 76G1: B1 UDP-glycosyltransferase 76G1 with I239A, T263S, Q266S, R334H, A379L, I394V

assay: Directed evolution of UGT76G1, conversion of Rebaudioside D to Rebaudioside M (round 1); type: biochemical; conditions: 0.5 mM Rebaudioside D, 2.5 mM UDP-Glucose, 100 μL fresh lysate, 30° C., pH 7.2
From the text: Starting from the amino acid sequence of UGT76G1, as is described in Genbank (AAR06912.1), different mutations at various amino acid positions were identified that could alter the activity of the enzyme for the transformation of Rebaudioside D (Reb D) to Rebaudioside M (Reb M). This list of mutations, designed by DNA2.0 ProteinGPS™ strategy, was subsequently used to synthesize 96 variant genes that contained 3, 4 or 5 of these mutations that were codon-optimized for expression in E. coli. The genes were subcloned in the pET30a+ plasmid and used for transformation of E. coli BL21 (DE3) chemically competent cells. The obtained cells were grown in Petri-dishes on solid LB medium in the presence of Kanamycin. Suitable colonies were selected and allowed to grow in liquid LB medium in tubes. Glycerol was added to the suspension as cryoprotectant and 400 μL aliquots were stored at −20° C. and at −80° C.
These storage aliquots of E. coli BL21(DE3) containing the pET30a+_UGT76G1var plasmids were thawed and added to LBGKP medium (20 g/L Luria Broth Lennox; 50 mM PIPES buffer pH 7.00; 50 mM Phosphate buffer pH 7.00; 2.5 g/L glucose and 50 mg/L of Kanamycine). This culture was allowed to shake in a 96 microtiter plate at 135 rpm at 30° C. for 8 h.
3.95 mL of production medium containing 60 g/L of Overnight Express™ Instant TB medium (Novagen®), 10 g/L of glycerol and 50 mg/L of Kanamycin was inoculated with 50 μL of above described culture. In a 48 deepwell plate the resulting culture was allowed to stir at 20° C. The cultures gave significant growth and a good OD (600 nm; 1 cm) was obtained. After 44 h, the cells were harvested by centrifugation and frozen.
Lysis was performed by addition of Bugbuster® Master mix (Novagen®) to the thawed cells and the lysate was recovered by centrifugation. Activity tests were performed with 100 μL of fresh lysate that was added to a solution of Rebaudioside D (final concentration 0.5 mM), MgCl2 (final concentration 3 mM) and UDP-Glucose (final concentration 2.5 mM) in 50 mM phosphate buffer pH 7.2.
The reaction was allowed to run at 30° C. and samples were taken after 2, 4, 7 and 24 h. to determine conversion and initial rate by HPLC (CAD detection) using the analytical method that was described above for the transformation of Rebaudioside D to Rebaudioside M. The results are depicted in the following table.

Molecule | Conversion Reb D to Reb M after 24 h (%) | initial rate (Reb M area/min)
B1 | 29.0% | 1.5E+07 Reb M area/min
B2 | 19.9% | 9.4E+06 Reb M area/min
B3 | 49.3% | 4.7E+07 Reb M area/min
B4 | 8.2% | 3.7E+06 Reb M area/min
B5 | 0.4% | 2.4E+05 Reb M area/min
B6 | 0.6% | 9.8E+05 Reb M area/min
B7 | 13.6% | 5.6E+06 Reb M area/min
B8 | 6.1% | 2.4E+06 Reb M area/min
B9 | 4.8% | 2.7E+06 Reb M area/min
B10 | 20.0% | 8.8E+06 Reb M area/min
B11 | 41.0% | 2.9E+07 Reb M area/min
B12 | 3.4% | 1.5E+06 Reb M area/min
B13 | 38.6% | 2.3E+07 Reb M area/min
B14 | 51.8% | 5.5E+07 Reb M area/min
B15 | 47.6% | 3.3E+07 Reb M area/min
B16 | 0.0% | −4.4E+04 Reb M area/min
B17 | 1.0% | 7.5E+06 Reb M area/min
B18 | 7.2% | 3.3E+06 Reb M area/min
B19 | 35.3% | 2.3E+07 Reb M area/min
B20 | 0.8% | 1.4E+06 Reb M area/min
B21 | 0.5% | 1.8E+05 Reb M area/min
B22 | 39.1% | 2.8E+07 Reb M area/min
B23 | 34.6% | 2.2E+07 Reb M area/min
